B1: antibody 523 (antibody, V domains shown)
VH: EVQLVESGGVSVQPGGSLRLSCAASGFSFNTYDMHWVRQGTGKGLEWVSGIGTAGDTYYSDSVKGRCTISRDNAKNSLHLLVKSVRAADTAVYYCARGVGGIIDYWGQGTLVTVSS
VL: NFVLSQPHSVSESPGKTVTISCTGNSGSIATKYVQWFQQRPGSAPTTVIYEDNQRPSGVPDRFSGSSDSSSNSASLTISGLKTEDEAHYYCQSYHNRRWVFGGGTKLTVL
B2: antibody 514 (antibody, V domains shown)
VH: EVQLVQSGAEVKKPGATVKISCKVSGYTFTDYYMHWVQQAPGKGLEWMGLVDPEDGETIYAEKFQGRVTITADTSTDTAYMELSSLRSEDTAVYYCATDCKYDILTGHYSAGYYYYGMDVWGQGTTVTVSS
VL: DIQMTQSPSSLSASVGDRVTITCRASQGISNYLAWFQQKPGKAPKSLIYAASSLQSGVPSKFSGSGSGTDFTLTISSLQPEDFATYYCQQYNSYPFTFGGGTKVEIK
B3: antibody 522 (antibody, V domains shown)
VH: EVQLVESGGGLVQPGGSLRLSCAASGFNFSSYSMNWVRQAPGKGLEWVSYISSSSSTIYYADSVKGRFTISRDNAKNSLYLQMNSLRDEDTAVYYCARGPEWDIVVVQAENWFDPWGQGTLVTVSS
VL: SYELTQPPSVSVSPGQTARITCSGDALPKQYVYWYQQKPGQAPVLVIYKDSERPSGIPERFSGSSSGTTVTLTISGVQAEDEADYYCQSADSSGTYRGVFGGGTKLTVL
B4: antibody 516 (antibody, V domains shown)
VH: QVELQQWGAGLLKPSETLSLTCAVYGGSFSGYYWSWIRQPPGKGLEWIGEINHSGSTNYNPSLKSRVTISIDTSKNQFSLKLSSVTAADTAVYYCARGTTVTTFFAPHWYFDLWGRGTLVTVSS
VL: QSALTQPASVSGSPGQSITISCTGTSSDVGGYNYVSWYQQHPGKAPKLMIYDVSNRPSGVSNRFSGSKSGNTASLTISGLQAEDEADYYCSSYTSSSTPYVFGTGTKVTVL
B5: antibody 517 (antibody, V domains shown)
VH: QVQLVESGGGVVQPGRSLRLSCAASGFNLSNYAMHWVRQASGKGLEWVSLISYDGSIKYYTDSVKGRFTVSGDNSKNTLFLQMNSLRADDSALYYCVRGGVSGPNSFDMWGQGTTVTVSS
VL: DVVMTQSPLSLPVTLGQPASISCRSSQSLVYSDGNTYVNWFQQRPGQSPRRLIYQVSIRASGVPDRFSGSGSGTDFALKISRVEAEDVGVYYCMQGTHWPVTFGQGTKVEIK
B6: antibody 331 (antibody, V domains shown)
V domain 1: QITLKESGPTLVKPTETLTLTCSFSGFSLTKTGEAAGWIRQAPGRALEWVTVIFWDDDKRYSPSLQNRISVTKDTSKNQVVLRMTNVARFDTGTYFCWAMGGPGKEYFGQGTLVAVSS
V domain 2: QSVLTQPPSVSGAPGQRVTISCTGTSSSIGPYSDVHWYQHVSGKAPRLLIFGNSNRPSGVPDRFSGSKSGTSASLVIAGLQAEDEADYYCQSYDSSLGEIYVFGTGTTVTVL
B7: antibody 339 (antibody, V domains shown)
V domain 1: QITLKESGPTLVKPTETLTLTCSFSGFSLTRTGEAAGWIRQAPGRALEWVTVIFWDDDKRYSPSLQSRLTVTKDTSKNQVVLTMTNVARFDTATYFCWAMGGPGKEYFGQGTQVAVSS
V domain 2: QSVLTQPPSVSGAPGQRVTISCTGTSSSIGPYSDVHWYQHVSGKAPRLLIFGNSNRPSGVPDRFSGSKSGTSASLVIAGLQAEDEADYYCQSYDSSLGEIYVFGTGTTVTVL
B8: antibody 324 (antibody, V domains shown)
VH: QVQLQESGPGLVKPSGTLSLTCAVSGGSISSSNWWSWVRQPPGKGLEWIGEIYHSGSTNYNPSLKSRVTISVDNSKNQFSLKLSSVTAADTAVYYCARESVAAAGISYYYYGMDVWGQGTTVTVSS
VL: EIVLTQSPGTLSLSPGERATLSCRASQSVSGRYLAWYQQKPGQAPRLLIYGASSRATGIPDRFSGSGSGTDFTLTISRLEPEDFAVYYCQHYGSSPGTFGQGTRLEIK
B9: antibody 340 (antibody, V domains shown)
VH: QVQLVQSGAEVKKPGASVKVSCKASGYTFTSYDINWVRQATGQGLEWMGWMNPNSGNTGYAQKFQGRVTMTRNTSISTAYMELSSLRSEDTAVYYCARGRYCTGGVCWGDWYFDLWGRGTLVTVSS
VL: QSVLTQPPSVSGAPGQRVTISCTGSSSNIGAGYDVHWYQQLPGTAPKFLIYGNSNRPSGVPDRFSGSKSGTSASLAITGLQAEDEADYYCQSYDSSLSGPVFGGGTKLTVL
B10: antibody 329 (antibody, V domains shown)
VH: EVQLVESGGGLVQPGGSLRLSCAASGFTFSSYWMHWVRQAPGKGLVWVSRINSDGSSTSYADSVKGRFTISRDNAKNTLYLQMNSLRAEDTAVYYCAREGIVATITLDYWGQGTLVTVSS
VL: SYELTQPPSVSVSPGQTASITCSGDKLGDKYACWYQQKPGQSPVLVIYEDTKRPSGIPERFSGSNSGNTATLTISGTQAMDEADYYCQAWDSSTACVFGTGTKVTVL
B11: antibody 326 (antibody, V domains shown)
VH: QITLKESGPTLVKPTQTLTLTCTFSGFSLNTSGVGVGWIRQPPGKALEWLSLIFWNDDKRYSPSLRSRLTITKDTSKNQVVLTMTNMDPVDTATYFCAHRNSGWSLKFDSWGQGSLVTVSA
VL: DIQMTQSPSSVSASVGDRVTITCRARQGISSWLVWYQQKPGKAPKLLIFGASSLQSGVPSRFNASGTGTEFTLTISSLQPEDFATYYCQQADSFPITFGQGTRLEIK
B12: antibody 366 (antibody, V domains shown)
VH: QVQLVESGGGVVQPGRSLRLSCAASGFTFSSYAMHWVRQAPGKGLEWVAVISYDGSNKYYADSVKGRFTISRDNSKNTLYLQMNSLRAEDTAVYYCARGLVGYNWFDPWGQGTLVTVSS
VL: DIQMTQSPSSVSASVGDRVTITCRASQGISSWLAWYQQKPGKAPKLLIYAASSLQSGVPSRFSGSGSGTDFTLTISSLQPEDFATYYCQQANSFTFGPGTKVDIK
B13: antibody 323 (antibody, V domains shown)
VH: QVQLVQSGAEVKKPGASVKVSCKVSGYTLTELSMHWVRQAPGKGLEWMGGFDPEDGETIYAQKFQGRVTMTEDTSTDTAYMELSSLRSEDTAVYYCATSTIFAPGGWFDPWGQGTLVTVSS
VL: QSALTQPASVSGSPGQSITISCTGTSSDVGSYNLVSWYQQHPGKAPKLMIYEVSKRPSGVSNRFSGSKSGNTASLTISGLQAEDEADYYCCSYAGSTHYVFGTGTKVTVL
B14: antibody 345 (antibody, V domains shown)
VH: QVQLQESGPGLVKPSQTLSLTCTVSGGSISSGDYYWSWIRQPPGKGLEWIGYIYYSGSTYYNPSLKSRVTISVDTSKNQFSLKLSSVTAADTAVYYCARVGMVDNWNFEGNWFDPWGQGTLVTVSS
VL: QSALTQPRSVSGSPGQSVTISCTGTSSDVGGYNYVSWYQQHPGKAPKLMIYDVSKRPSGVPDRFSGSKSGNTASLTISGLQAEDEADYYCCSYAGSVVFGGGTKLTVL
B15: antibody 344 (antibody, V domains shown)
VH: QVQLVESGGGVVQPGRSLRLSCAASGFTFSSYAMHWVRQAPGKGLEWMAVISYDGSNKYYADSVKGRFTISRDNSKNTLYLQMNSLRAEDTAVYFCAKGYSGSYYEPFDYWGQGTLVTVSS
VL: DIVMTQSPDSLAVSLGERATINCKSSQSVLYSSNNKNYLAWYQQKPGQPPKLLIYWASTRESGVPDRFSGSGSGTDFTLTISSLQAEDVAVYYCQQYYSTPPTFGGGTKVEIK
B16: antibody 363 (antibody, V domains shown)
VH: EVQLLESGGGLVQPGGSLRLSCAASGFTFSTYAMSWVRQAPGKGLEWVSAISGSGGSTYYADSVKGRFTISRDNSKNTLYLQMNSLRAEDTAVYYCASGYSPDYWGQGTLVTVSS
VL: not shown
B17: antibody 316 (antibody, V domains shown)
VH: QVHLVESGGGVVQPGRSLRLSCAASGFTLTAYAMHWVRQAPGKRLEWVALISYDGSVKKYADSVKGRITVSGDTSTNTLHLQMNSLRADDTAVYYCVRGGVSGPNSFDLWGQGTMVTVSS
VL: DVVMTQSPLSLPVTLGQPASMSCRSSQSLEYSDGNTYVNWFHQRPGQSPRRLIYKVSYRDSGVPDRFSGSGSGTDFTLQISRVEAEDVGIYYCMQGTHWPVTFGQGTKVEIK
B18: antibody 327 (antibody, V domains shown)
VH: QVQLVESGGGVVQPGRSLRLSCAASGFNLSNYAMHWVRQASGKGLEWVSLISYDGSIKYYTDSVKGRFTVSGDNSKNTLFLQMNSLRPDDSALYYCVRGGVSGPNSFDMWGQGTTVTVSS
VL: DVVMTQSPLSLPVTLGQPASISCRSSQSLVYSDGNTYVNWFQQRPGQSPRRLIYQVSIRASGVPDRFSGSGSGTDFALKISRVEAEDVGIYYCMQGTHWPVTFGQGTKVEIK
B19: antibody 365 (antibody, V domains shown)
VH: QVQLVESGGGVVQPGRSLRLSCAASGFNLSSYAMHWVRQASGKGLEWVSLISYDGSIKYYTDSVKGRFTVSGDNSKNTLFLQMNSLRPDDSALYYCVRGGVSGPNSFDMWGQGTTVTVSS
VL: DVVMTQSPLSLPVTLGQPASISCRSSQSLVYSDGNTYVNWFQQRPGQSPRRLIYKVSIRASGVPDRFSGSGSGTDFALKISRVEAEDVGVYYCMQGTHWPVTFGQGTKVEIK
B20: antibody 320 (antibody, V domains shown)
VH: QVQLVQSGAEVKKPGASVKVSCKASGYTFTSYGISWVRQAPGQGLEWMGWISAYNGNTNYAQKLQGRVTMTTDTSTRTAYMELRSLRSDDTAVYYCARVGCYYDSSGYSCAENFQHWGQGTLVTVSS
VL: QSVLTQPPSVSGAPGQRVTISCTGSSSNIGAGYDVHWYQQLPGTAPKLLIYGNSNRPSGVPDRFSGSKSGTSASLAITGLQAEDEADYYCQSYDSSLSALFGGGTKLTVL
B21: antibody 348 (antibody, V domains shown)
VH: QVQLVQSGSELKKPGASVKVSCKASGYTFTSYAMNWVRQAPGQGLEWMGWINTNTGNPTYAQGFTGRFVFSLDTSVSTAYLQISSLKAEDTAVYYCARDHELPNTSSWFGHFEYWGQGTLVTVSS
VL: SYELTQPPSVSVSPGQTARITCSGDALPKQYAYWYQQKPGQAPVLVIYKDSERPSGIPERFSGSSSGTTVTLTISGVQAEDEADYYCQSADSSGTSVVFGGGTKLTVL
B22: antibody 317 (antibody, V domains shown)
VH: QVQLVQSGAEVKKPGASVKVSCKVSGYTLTELSMHWVRQAPGKGLEWMGGFDPEDGETIYAQKFQGRVTMTEDTSTDTAYMELSSLRSEDTAVYYCASSPAAAGTSQYYYYYGMDVWGQGTTVTVSS
VL: not shown

What follows are binders tested against SARS-CoV-2 full length spike protein, V483A mutant (SARS-CoV-2, UniProt P0DTC2 14-1273).
For B1, the “median fold over isotype” value was 3.76 fold over isotype.
B2 was tested, and the “median fold over isotype” value was 1.39 fold over isotype.
B3 was tested, and the “median fold over isotype” value was 6.75 fold over isotype.
With B4 the “median fold over isotype” value was 2.61 fold over isotype.
B5 was tested, and the “median fold over isotype” value was 11.5 fold over isotype.

Each binder was assayed against SARS-CoV-2 full length spike protein, V483A mutant, expressed on the surface of CHO cells (SARS-CoV-2, UniProt P0DTC2 14-1273).
With B6 the “median fluorescence intensity, fold over isotype control” value (from here on “median fluorescence intensity, fold”) was 18.1 fold over isotype.
For B7, the “median fluorescence intensity, fold” value was 18.2 fold over isotype.
In the case of B8, the “median fluorescence intensity, fold” value is reported as 24.9 fold over isotype.
B9 was tested, and the “median fluorescence intensity, fold” value was 26.3 fold over isotype.
B10 was tested, and the “median fluorescence intensity, fold” value was 10.6 fold over isotype.
With B11 the “median fluorescence intensity, fold” value was 10.2 fold over isotype.
B12 was tested, and the “median fluorescence intensity, fold” value was 9.74 fold over isotype.
B13 was tested, and the “median fluorescence intensity, fold” value was 19 fold over isotype.
B14 was tested, and the “median fluorescence intensity, fold” value was 9.41 fold over isotype.
In the case of B15, the “median fluorescence intensity, fold” value is reported as 8.15 fold over isotype.
B16 was tested, and the “median fluorescence intensity, fold” value was 15.1 fold over isotype.
B17 was tested, and the “median fluorescence intensity, fold” value was 10.4 fold over isotype.
B18 was tested, and the “median fluorescence intensity, fold” value was 10.4 fold over isotype.
In the case of B19, the “median fluorescence intensity, fold” value is reported as 11.2 fold over isotype.
For B20, the “median fluorescence intensity, fold” value was 19.7 fold over isotype.
In the case of B21, the “median fluorescence intensity, fold” value is reported as 14.2 fold over isotype.
B22 was tested, and the “median fluorescence intensity, fold” value was 10.3 fold over isotype.

From patent publication US20210292393A1 (published 2021)
